Measured values taken from patent publication US20210009686A1 (published 2021).

Biological target: CLDN18.2
Assay: FACS binding, KATO III cells

EC50: 0.67 µg/mL
B1: IMAB362 (antibody, V domains shown)
VH: QVQLQQPGAELVRPGASVKLSCKASGYTFTSYWINWVKQRPGQGLEWIGNIYPSDSYTNYNQKFKDKATLTVDKSSSTAYMQLSSPTSEDSAVYYCTRSWRGNSFDYWGQGTTLTVSS
VL: DIVMTQSPSSLTVTAGEKVTMSCKSSQSLLNSGNQKNYLTWYQQKPGQPPKLLIYWASTRESGVPDRFTGSGSGTDFTLTISSVQAEDLAVYYCQNDYSYPFTFGSGTKLEIKR
